In paper PMC11982451 (The Journal of Biological Chemistry, 2025):

Biological target: T1, 2CARD domain of human RIG-I, residues 1-200, recombinant (human, UniProt O95786 1-200)
T1 sequence (looked up): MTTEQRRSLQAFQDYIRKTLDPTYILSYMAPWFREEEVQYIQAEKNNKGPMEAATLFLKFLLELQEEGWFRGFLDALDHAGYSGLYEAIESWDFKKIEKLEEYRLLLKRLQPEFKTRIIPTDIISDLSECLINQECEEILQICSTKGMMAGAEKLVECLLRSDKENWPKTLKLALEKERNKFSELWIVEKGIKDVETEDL
Experiment: NMR titration

B1: PRYSPRY domain (PSpry) of human TRIM25, residues 433-630, recombinant (domain or fragment, UniProt Q14258 433-630, looked up)
chain: STSLKAKVLETFLAKSRPELLEYYIKVILDYNTAHNKVALSECYTVASVAEMPQNYRPHPQRFTYCSQVLGLHCYKKGIHYWEVELQKNNFCGVGICYGSMNRQGPESRLGRNSASWCVEWFNTKISAWHNNVEKTLPSTKATRVGVLLNCDHGFVIFFAVADKVHLMYKFRVDFTEALYPAFWVFSAGATLSICSPK
B1: binds.
